The values that follow come from PMC4504005, “Structural Basis for Receptor Activity-Modifying Protein-Dependent Selective Peptide Recognition by a G Protein-Coupled Receptor” (Molecular cell, 2015).

Where “and” joins values, the source holds several entries; their conditions need not be identical. Equal entries are not always repeated.

As usually defined, the IC50 is the concentration at which inhibition is half-maximal. Broadly, the pIC50 is the negative decadic logarithm of the IC50, by convention in mol/L.

Assay [1] concerns the target MBP-RAMP2 ECD [L106R]-(GSA)3-CLR ECD-H6 tethered fusion protein (UniProt O60895). Nature of the assay: AlphaScreen or HTRF; competition assay: purified tethered receptor ECD fusion protein with biotin-CGRP or biotin-AM (100 nM each in Figure 6), unlabelled competitor peptide varied; apparent affinities. (In general: Bead proximity is the source of the signal in Alpha formats.)

Assay [2] has as its target MBP-RAMP1 ECD-(GSA)3-CLR ECD-H6 tethered fusion protein (UniProt O60894). The description is as above.

With AM(22–52)NH2 (peptide), in assay [1], the IC50 lay in the range of 5000 to 15000 nM; the pIC50 is 4.92 and 4.84.
As for CGRPmut [F37Y] (peptide), the results for the pIC50 in assay [2] and in assay [1] were 6.24 and 4.79, respectively.
Regarding “CGRP(27–37)NH2 [D31, P34, F35] (peptide)”, in assay [2], the IC50 came to 460 nM and the pIC50 is 6.79.
Turning to AM(37–52)NH2 (peptide), the pIC50 in assay [1] came out at 5.
For the substance CGRP(8–37)NH2 (peptide), in assay [2], the IC50 worked out at 2000 nM and the pIC50 stood at 5.01.
